According to patent publication US20010029022:

Assays:
[1] = system: histone H1
[2] = target: GST-HPV16 E7 (UniProt P03129)
[3] = target: His-p27 (UniProt P46527)
His-p27, sequence (P46527 whole entry, looked up): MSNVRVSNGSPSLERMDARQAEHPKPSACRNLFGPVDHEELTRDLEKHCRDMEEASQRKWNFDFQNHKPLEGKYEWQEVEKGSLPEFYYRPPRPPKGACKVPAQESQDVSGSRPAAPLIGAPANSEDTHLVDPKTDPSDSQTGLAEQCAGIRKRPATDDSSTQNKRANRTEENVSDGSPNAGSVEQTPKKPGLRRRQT

GST-HPV16 E7, sequence (P03129 whole entry): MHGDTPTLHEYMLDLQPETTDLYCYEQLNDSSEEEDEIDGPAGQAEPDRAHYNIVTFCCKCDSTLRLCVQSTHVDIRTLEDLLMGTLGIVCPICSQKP

## cyclin A/CDK2 complex
[1]
  Km for histone H1 (cyclinA/CDK2 pre-incubated with HPV16-E7, Michaelis-Menten fit): a Km of 1.1+/-0.2 µM for histone H1

## cyclin E/CDK2 complex
[2]
  cyclin E/CDK2 phosphorylation of purified MBP-HPV 18 E1 fusion protein: stimulated 2.3-fold by the addition of HPV 16E7
  cyclinE/CDK2 kinase activity with histoneH1 as the substrate, increase over controls: a large increase (26-fold and 13-fold) over controls
  cyclinE/CDK2 kinase activity with pRb as the substrate, increase over background: 1.9-fold increase over background
[3]
  cyclin E/CDK2 phosphorylation of MBP-HPV 18 E1: The phosphorylation of E1 was completely inhibited by the addition of p27 even in the presence of excess GST-16E7

## CDK5 complexed with p25
[2]
  H1 phosphorylation by CDK5 complexed with p25, increase over controls: a 4.5-fold increase over controls
